Reference: the supplement of paper PMC12764529
± gives the half width of the 95% confidence interval.

Experiments:
[1] = folding stability dG unfold from chymotrypsin proteolysis; higher = more stable
How it was run: (§1)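 Digests were run with trypsin and chymotrypsin at 11 concentrations in threefold dilutions, plus a no-protease condition, on designed mini-proteins in a PA-tagged cDNA display construct. The mini-proteins were under 80 residues, had no cysteine, and were kept only when AlphaFold2 dimer inter-PAE was above 15. After sequencing, Bayesian fitting of the counts gave K50, from which unfolding free energy was derived against a sequence-predicted unfolded-state K50 and a shared folded-state K50, per protease or combined.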

[2] = folding stability dG unfold from trypsin proteolysis; higher = more stable
How it was run: as §1

[3] = folding stability dG unfold (combined trypsin and chymotrypsin); higher = more stable
How it was run: as §1

| Sequence | folding stability dG unfold [1] | folding stability dG unfold [2] | folding stability dG unfold [3] |
| --- | --- | --- | --- |
| SAGGSAGGSAGGMKVIPFESLEEAREYIKANPDENVLLEFPDALLELTKPDDIKKIEKKPSAGGSAGGSAGG [r7_532_JUSTAS] | 0.36 ± 0.12 kcal/mol | -0.0919 ± 0.12 kcal/mol | 0.28 ± 0.084 kcal/mol |
| SAGGSAGGSAGGMKVLVIFEDNKIPRVVSEEELKKIPLPFKIIPLGPDPEEAKKILEKSSAGGSAGGSAGGS [r10_419_TrMRF] | 0.34 ± 0.39 kcal/mol | 0.616 ± 0.13 kcal/mol | 0.434 ± 0.27 kcal/mol |
| SAGGSAGGSAGGMLFHFEIKDPNSDKEYEVLVEKPPSGKVLVTILKDNKEEVKVLPLELFSAGGSAGGSAGG [r11_952_JUSTAS] | -0.393 ± 0.42 kcal/mol | 0.109 ± 0.17 kcal/mol | -0.29 ± 0.31 kcal/mol |
| SAGGSAGGSAGGMLILVEVNGEKRLLEADSLEDALAKLPPGATVTRVEIFEVEEVELPESAGGSAGGSAGGS [r10_13_TrROS_Hall] | 2 ± 0.059 kcal/mol | 2.36 ± 0.067 kcal/mol | 2.15 ± 0.068 kcal/mol |
| SAGGSAGGSAGGMLLSPEEAEKLAAELKAKENVTIKVTPEPSPGKVKVEIIKTKGPKLVSAGGSAGGSAGGS [r10_402_JUSTAS] | 0.54 ± 0.061 kcal/mol | -0.0172 ± 0.17 kcal/mol | 0.418 ± 0.16 kcal/mol |
| SAGGSAGGSAGGMLTAVFTTPGNVRRLVPFSSEEEARALAEAEGVEVEFLDPAEAARLLSAGGSAGGSAGGS [r10_66_JUSTAS] | -0.497 ± 0.25 kcal/mol | -0.569 ± 0.17 kcal/mol | -0.476 ± 0.14 kcal/mol |
| SAGGSAGGSAGGMLVRIPRGDKGFVLEIETDGVRTVEEFDGTEEEIREYAEKNGFEILESAGGSAGGSAGGS [r10_506_JUSTAS] | 0.883 ± 0.051 kcal/mol | 0.771 ± 0.017 kcal/mol | 0.892 ± 0.071 kcal/mol |
| SAGGSAGGSAGGMMKITIEVDGKKIEITLPPGAELKFDKEKKEIYIRNKKTNEILKLKIKSAGGSAGGSAGG [r7_7_TrROS_Hall] | 2.35 ± 0.041 kcal/mol | 1.9 ± 0.048 kcal/mol | 2.21 ± 0.11 kcal/mol |
| SAGGSAGGSAGGMMRIRIKIYNVETGEWKEIEIEVPESVKEITLEIELPEGWRIVEIEVESAGGSAGGSAGG [r7_687_TrROS_Hall] | 5.22 ± 0.087 kcal/mol | 5.39 ± 0.52 kcal/mol | 5.32 ± 0.14 kcal/mol |
| SAGGSAGGSAGGMMVNLKVTREKLPNGKYRVTFTLPNGEEVVVEVESEEEAEAAAKEIAASAGGSAGGSAGG [r11_955_JUSTAS] | 4.23 ± 0.052 kcal/mol | 3.2 ± 0.053 kcal/mol | 3.95 ± 0.084 kcal/mol |
| SAGGSAGGSAGGMNPVSKVTKHSGPNGQVTETTTYFDPASGKTTVTYTDLVTGTTSTISTSAGGSAGGSAGG [r11_1063_JUSTAS] | -1.02 ± 0.41 kcal/mol | -0.579 ± 0.047 kcal/mol | -0.823 ± 0.17 kcal/mol |
| SAGGSAGGSAGGMPADEKVTTSPEIVTLPNGTRVVVTKSTSPDPSVSSTSVTVLPPNVPPSAGGSAGGSAGG [r11_338_JUSTAS] | 1.38 ± 0.027 kcal/mol | 0.393 ± 0.029 kcal/mol | 1.05 ± 0.066 kcal/mol |
| SAGGSAGGSAGGMPIPVTITVSDPATGTTKVVKTVLVTSPEKLEEVISKLPEGKKYTVVESAGGSAGGSAGG [r7_307_JUSTAS] | -0.224 ± 0.22 kcal/mol | -0.415 ± 0.098 kcal/mol | -0.393 ± 0.29 kcal/mol |
| SAGGSAGGSAGGMPLTLTSETVTVERDPTSNNVVTTTTTTYKLPNGTLVTVTTTTTSPTTSAGGSAGGSAGG [r7_267_JUSTAS] | 2.21 ± 0.034 kcal/mol | 2.38 ± 0.1 kcal/mol | 2.33 ± 0.06 kcal/mol |
| SAGGSAGGSAGGMPTTATITLPGGETLTVPVPVDPSTGTVSEEEIRALVGPEFEFEILGGSAGGSAGGSAGG [r7_492_JUSTAS] | 1.49 ± 0.062 kcal/mol | 0.779 ± 0.04 kcal/mol | 1.24 ± 0.068 kcal/mol |
| SAGGSAGGSAGGMPVTLNVTVKTKDPDGVAATETVTLTFSSPEEALAAIKAAYPNSTIESAGGSAGGSAGGS [r10_1248_JUSTAS] | 1.33 ± 0.061 kcal/mol | 0.995 ± 0.057 kcal/mol | 1.15 ± 0.12 kcal/mol |
| SAGGSAGGSAGGMRLVRITTEDGRTITAPVGETITITRPDGSKVKITRVEVFELPPEDLSAGGSAGGSAGGS [r10_20_TrROS_Hall] | 1.51 ± 0.025 kcal/mol | 0.744 ± 0.021 kcal/mol | 1.23 ± 0.041 kcal/mol |
| SAGGSAGGSAGGMRRVTIWFPIPEDEEITFKLPGNGVEVEIEPDKGNGFFRITVYLPDGSAGGSAGGSAGGS [r10_1138_TrROS] | 2.07 ± 0.12 kcal/mol | 1.42 ± 0.036 kcal/mol | 1.94 ± 0.098 kcal/mol |
| SAGGSAGGSAGGMTIEINGKKYEIVEVKEEKGKLTLKIKVNGKLLEIEIDKDKNEIKIYPSAGGSAGGSAGG [r7_553_TrROS_Hall] | 4.05 ± 0.1 kcal/mol | 3.44 ± 0.14 kcal/mol | 3.91 ± 0.14 kcal/mol |
| SAGGSAGGSAGGMTITVVTEESPGPFKTVTVTTTTPLPNGTLATTTTTTFLPVSPDEPVSAGGSAGGSAGGS [r10_241_JUSTAS] | 0.208 ± 0.27 kcal/mol | 1.52 ± 0.044 kcal/mol | 0.983 ± 0.08 kcal/mol |
| SAGGSAGGSAGGMTLEEVKKALEELGIKEENQTVTIELEDGSKVKITVKDGKVVLEVEPSAGGSAGGSAGGS [r10_604_TrROS_Hall] | 2.19 ± 0.1 kcal/mol | 2.81 ± 0.18 kcal/mol | 2.54 ± 0.13 kcal/mol |

| Sequence | folding stability dG unfold [1] | folding stability dG unfold [2] | folding stability dG unfold [3] |
| --- | --- | --- | --- |
| SAGGSAGGSAGGMTLRIRVRNKDGKVLEIEVEVDEDKTPEEVARELAKKLNVEKVEIFPSAGGSAGGSAGGS [r10_400_TrROS_Hall] | 2.32 ± 0.038 kcal/mol | 2.2 ± 0.07 kcal/mol | 2.28 ± 0.13 kcal/mol |
| SAGGSAGGSAGGMTPIEVTVELEEPTRRTTRRFTFTSPEEVEAYLKALPASWRVTRVELRSAGGSAGGSAGG [r17_410_JUSTAS] | 1.82 ± 0.15 kcal/mol | 1.58 ± 0.038 kcal/mol | 1.66 ± 0.075 kcal/mol |
| SAGGSAGGSAGGMTTVTLTLTTELEVKDPEGKLHRETVTVTVTVPVPPSTLTDTTDLVSSAGGSAGGSAGGS [r10_168_JUSTAS] | 2.12 ± 0.054 kcal/mol | 1.82 ± 0.1 kcal/mol | 1.91 ± 0.17 kcal/mol |
| SAGGSAGGSAGGMTTVTTLETRPLPDGTTVTREVVTDENGTVVSTTVSRVSPEGVVTAESAGGSAGGSAGGS [r10_1014_JUSTAS] | 0.97 ± 0.025 kcal/mol | -0.0113 ± 0.05 kcal/mol | 0.623 ± 0.055 kcal/mol |
| SAGGSAGGSAGGMVIRLEDGRTLVFETREEAEEAAKALAEELGLKEVKVEIVEVPLEELPSAGGSAGGSAGG [r7_839_TrROS_Hall] | 2.6 ± 0.032 kcal/mol | 2.11 ± 0.073 kcal/mol | 2.4 ± 0.045 kcal/mol |
| SAGGSAGGSAGGMVITVPKENLKELIDALRKEGKARIVSVEEKDGLVTITVELEDEELESAGGSAGGSAGGS [r10_695_TrROS_Hall] | 2.28 ± 0.075 kcal/mol | 3.24 ± 0.18 kcal/mol | 2.95 ± 0.11 kcal/mol |
| SAGGSAGGSAGGMVIVKVHLPNGNTLTFVFPGMTLDEIREELASQGGKIKEIEIVPMENSAGGSAGGSAGGS [r10_572_TrROS] | 2.323 ± 0.02 kcal/mol | 2.17 ± 0.07 kcal/mol | 2.28 ± 0.079 kcal/mol |
| SAGGSAGGSAGGMVKIKLKNGKWYEAKVTEIDEDGNVVVELPNGKKFTVPAKDLEIEVLPSAGGSAGGSAGG [r7_823_TrROS_Hall] | 3.7 ± 0.097 kcal/mol | 3.77 ± 0.29 kcal/mol | 3.69 ± 0.11 kcal/mol |
| SAGGSAGGSAGGMVTTLEVTVSPDGVITVTTVTTDAAGTPVTTTTTTTVLGPGGPVLAVSAGGSAGGSAGGS [r10_484_JUSTAS] | 2 ± 0.044 kcal/mol | 2.05 ± 0.13 kcal/mol | 2.03 ± 0.12 kcal/mol |
| SAGGSAGGSAGGMVVRITTKDGRTITFPPGTSLEELRSLPADEITRVEVVEVEPVRVVEPSAGGSAGGSAGG [r7_190_TrROS_Hall] | 1.97 ± 0.051 kcal/mol | 1.45 ± 0.028 kcal/mol | 1.75 ± 0.082 kcal/mol |
| SAGGSAGGSAGGMVVRVTKNGTSTEIIVDSEEEAKELLKPLFPDDSEVEIEFVSEEELSSAGGSAGGSAGGS [r10_1167_JUSTAS] | 0.963 ± 0.065 kcal/mol | 0.0397 ± 0.07 kcal/mol | 0.718 ± 0.12 kcal/mol |
| SAGGSAGGSAGGMYFIRIKPPNGEELVILIPPGDEIKIKDADGRPWKITDVYPMPPEQFSAGGSAGGSAGGS [r10_422_TrROS] | -0.118 ± 0.73 kcal/mol | -0.17 ± 0.27 kcal/mol | 0.0506 ± 0.41 kcal/mol |
| SAGGSAGGSAGGMYRIKVTTKDGRERVIEVKPGEEITLEELRKAGLSEEEIERVEIEEVSAGGSAGGSAGGS [r10_565_TrROS_Hall] | 1.85 ± 0.051 kcal/mol | 1.89 ± 0.076 kcal/mol | 1.84 ± 0.092 kcal/mol |
| SAGGSAGGSAGGMYRVEIETKGNKKVYIFPNLSPEELAKFLEDPKVVSYKVEKLSPEELESAGGSAGGSAGG [r7_502_JUSTAS] | 2.34 ± 0.094 kcal/mol | 2.04 ± 0.077 kcal/mol | 2.27 ± 0.08 kcal/mol |
| SAGGSAGGSAGGNEEDIEKAVKEAKEKGENAEVKVTLPNGKEETVYIEVNVKEPSEKLKSAGGSAGGSAGGS [r10_573_JUSTAS] | -1.04 ± 0.22 kcal/mol | -1.05 ± 0.47 kcal/mol | < -1 kcal/mol |
| SAGGSAGGSAGGNFKITEPVEEYPNPNGNPIKVFTFKNPDDGPEFTFIFMPNGNWQFIPSAGGSAGGSAGGS [r10_1123_TrROS] | 0.797 ± 0.14 kcal/mol | 0.674 ± 0.09 kcal/mol | 0.77 ± 0.12 kcal/mol |
| SAGGSAGGSAGGNPGGKRQWVMMEFPIPPGKKIELPPNFNVSIFRDNDRLWLMITVDAVKSAGGSAGGSAGG [r7_584_TrROS] | 1.88 ± 0.06 kcal/mol | 1.7 ± 0.07 kcal/mol | 1.9 ± 0.11 kcal/mol |
| SAGGSAGGSAGGNVITVFIPNYQIITIHLSPEPGRIPIEVYPPNGKKEEWPIPDIKELIQSAGGSAGGSAGG [r7_769_TrROS] | -0.306 ± 0.14 kcal/mol | 1.6 ± 0.13 kcal/mol | 1.01 ± 0.13 kcal/mol |
| SAGGSAGGSAGGNVRLTVTLDENGRLRVTAEVEVTNENGEKKTYRLTLTLKLKPGQTLTSAGGSAGGSAGGS [r10_763_TrROS_Hall] | 3.863 ± 0.024 kcal/mol | 2.9 ± 0.054 kcal/mol | 3.55 ± 0.13 kcal/mol |
| SAGGSAGGSAGGNVRNLDISLDPEEGTIKIKATLPENGQTWEITIPVQIPLPPPPPGDNSAGGSAGGSAGGS [r10_331_TrROS] | 0.502 ± 0.12 kcal/mol | 0.49 ± 0.1 kcal/mol | 0.424 ± 0.29 kcal/mol |
